Results as given in patent US20240336909.

B1: MMP-1 (protein)
chain: FVLTEGNPRWEQTHLTYRIENYTPDLPRADVDHAIEKAFQLWSNVTPLTFTKVSEGQADIMISFVRGDHRDNSPFDGPGGNLAHAFQPGPGIGGDAHFDEDERWTNNFREYNLHRVAAHELGHSLGLSHSTDIGALMYPSYTFSGDVQLAQDDIDGIQAIYGRSQNPVQPIGPQTPKACDSKLTFDAITTIRGEVMFFKDRFYMRTNPFYPEVELNFISVFWPQLPNGLEAAYEFADRDEVRFFKGNKYWAVQGQNVLHGYPKDIYSSFGFPRTVKHIDAALSEENTGKTYFFVANKYWRYDEYKRSMDPGYPKMIAHDFPGIGHKVDAVFMKDGFFYFFHGTRQYKFDPKTKRILTLQKANSWFNCRKN
B2: MMP-7 (protein)
chain: YSLFPNSPKWTSKVVTYRIVSYTRDLPHITVDRLVSKALNMWGKEIPLHFRKVVWGTADIMIGFARGAHGDSYPFDGPGNTLAHAFAPGTGLGGDAHFDEDERWTDGSSLGINFLYAATHELGHSLGMGHSSDPNAVMYPTYGNGDPQNFKLSQDDIKGIQKLYGKRSNSRKK
B3: MMP-12 (protein)
chain: GPVWRKHYITYRINNYTPDMNREDVDYAIRKAFQVWSNVTPLKFSKINTGMADILVVFARGAHGDFHAFDGKGGILAHAFGPGSGIGGDAHFDEDEFWTTHSGGTNLFLTAVHEIGHSLGLGHSSDPKAVMFPTYKYVDINTFRLSADDIRGIQSLYGDPKENQRLPNPDNSEPALCDPNLSFDAVTTVGNKIFFFKDRFFWLKVSERPKTSVNLISSLWPTLPSGIEAAYEIEARNQVFLFKDDKYWLISNLRPEPNYPKSIHSFGFPNFVKKIDAAVFNPRFYRTYFFVDNQYWRYDERRQMMDPGYPKLITKNFQGIGPKIDAVFYSKNKYYYFFQGSNQFEYDFLLQRITKTLKSNSWFGC

What follows are proteins tested against AxCT mask27 EGFR EH104 L001 version 1.

| Protein | Percent cleavage [%] |
| --- | --- |
| B1 | 40 |
| B2 | 71 |
| B3 | 68 |

These proteins were tested against AxCT mask27 EGFR EH104 L069 version 1.

| Protein | Percent cleavage [%] |
| --- | --- |
| B1 | 0 |
| B2 | 0 |
| B3 | 63 |

These proteins were tested against AxCT mask27 EGFR EH104 L073 version 1.

| Protein | Percent cleavage [%] |
| --- | --- |
| B1 | 0 |
| B2 | 27 |
| B3 | 31 |

The proteins below were run against AxCT mask27 EGFR EH104 L071 version 1.

| Protein | Percent cleavage [%] |
| --- | --- |
| B1 | 0 |
| B2 | 30 |
| B3 | 51 |

Each protein was assayed against AxCT mask27 EGFR EH104 L065 version 1.

| Protein | Percent cleavage [%] |
| --- | --- |
| B1 | 10 |
| B2 | 60 |
| B3 | 68 |

The proteins below were run against AxCT mask27 EGFR EH104 L040 version 1.

| Protein | Percent cleavage [%] |
| --- | --- |
| B1 | 6 |
| B2 | 0 |
| B3 | 13 |

The proteins below were run against AxCT mask27 EpCAM H90.2 L041 version 1.

| Protein | Percent cleavage [%] |
| --- | --- |
| B1 | 0 |
| B2 | 0 |
| B3 | 0 |

What follows are proteins tested against AxCT mask27 EGFR EH104 L070 version 1.

| Protein | Percent cleavage [%] |
| --- | --- |
| B1 | 0 |
| B2 | 9 |
| B3 | 19 |

Each protein was assayed against AxCT mask27 EGFR EH104 L059 version 1.

| Protein | Percent cleavage [%] |
| --- | --- |
| B1 | 0 |
| B2 | 0 |
| B3 | 62 |

These proteins were tested against AxCT mask27 EGFR EH104 L054 version 1.

| Protein | Percent cleavage [%] |
| --- | --- |
| B1 | 0 |
| B2 | 24 |
| B3 | 30 |

What follows are proteins tested against AxCT mask27 EGFR EH104 L063 version 1.

| Protein | Percent cleavage [%] |
| --- | --- |
| B1 | 0 |
| B2 | 37 |
| B3 | 31 |

The proteins below were run against AxCT mask27 EpCAM H90.2 L073 version 1.

| Protein | Percent cleavage [%] |
| --- | --- |
| B1 | 0 |
| B2 | 43 |
| B3 | 36 |

These proteins were tested against AxCT mask27 EGFR EH104 L064 version 1.

| Protein | Percent cleavage [%] |
| --- | --- |
| B1 | 0 |
| B2 | 28 |
| B3 | 34 |

Each protein was assayed against AxCT mask27 EpCAM H90.2 L059 version 1.

| Protein | Percent cleavage [%] |
| --- | --- |
| B1 | 0 |
| B2 | 0 |
| B3 | 71 |

What follows are proteins tested against AxCT mask27 EpCAM H90 L001 version 1.

| Protein | Percent cleavage [%] |
| --- | --- |
| B1 | 48 |
| B2 | 92 |
| B3 | 91 |

What follows are proteins tested against AxCT mask27 EGFR EH104 L060 version 1.

| Protein | Percent cleavage [%] |
| --- | --- |
| B1 | 0 |
| B2 | 9 |
| B3 | 18 |

These proteins were tested against AxCT mask27 EGFR EH104 L066 version 1.

| Protein | Percent cleavage [%] |
| --- | --- |
| B1 | 6 |
| B2 | 0 |
| B3 | 16 |

Each protein was assayed against AxCT mask27 EGFR EH104 L067 version 1.

| Protein | Percent cleavage [%] |
| --- | --- |
| B1 | 0 |
| B2 | 0 |
| B3 | 26 |

These proteins were tested against AxCT mask27 EpCAM H90.2 L061 version 1.

| Protein | Percent cleavage [%] |
| --- | --- |
| B1 | 0 |
| B2 | 35 |
| B3 | 64 |

The proteins below were run against AxCT mask27 EGFR EH104 L068 version 1.

| Protein | Percent cleavage [%] |
| --- | --- |
| B1 | 0 |
| B2 | 0 |
| B3 | 9 |

Each protein was assayed against AxCT mask27 EGFR EH104 L043 version 1.

| Protein | Percent cleavage [%] |
| --- | --- |
| B1 | 0 |
| B2 | 0 |
| B3 | 0 |

The proteins below were run against AxCT mask27 EGFR EH104 L055 version 1.

| Protein | Percent cleavage [%] |
| --- | --- |
| B1 | 10 |
| B2 | 67 |
| B3 | 72 |

These proteins were tested against AxCT mask27 EGFR EH104 L056 version 1.

| Protein | Percent cleavage [%] |
| --- | --- |
| B1 | 6 |
| B2 | 6 |
| B3 | 12 |

Each protein was assayed against AxCT mask27 EpCAM H90.2 L075 version 1.

| Protein | Percent cleavage [%] |
| --- | --- |
| B1 | 0 |
| B2 | 0 |
| B3 | 0 |

What follows are proteins tested against AxCT mask27 EGFR EH104 L061 version 1.

| Protein | Percent cleavage [%] |
| --- | --- |
| B1 | 0 |
| B2 | 26 |
| B3 | 49 |

The proteins below were run against AxCT mask27 EGFR EH104 L058 version 1.

| Protein | Percent cleavage [%] |
| --- | --- |
| B1 | 0 |
| B2 | 0 |
| B3 | 9 |

The proteins below were run against AxCT mask27 EpCAM H90.2 L063 version 1.

| Protein | Percent cleavage [%] |
| --- | --- |
| B1 | 0 |
| B2 | 48 |
| B3 | 33 |

The proteins below were run against AxCT mask27 EpCAM H90.2 L043 version 1.

| Protein | Percent cleavage [%] |
| --- | --- |
| B1 | 0 |
| B2 | 0 |
| B3 | 0 |

Each protein was assayed against AxCT mask27 EpCAM H90.2 L064 version 1.

| Protein | Percent cleavage [%] |
| --- | --- |
| B1 | 0 |
| B2 | 32 |
| B3 | 36 |

What follows are proteins tested against AxCT mask27 EGFR EH104 L072 version 1.

| Protein | Percent cleavage [%] |
| --- | --- |
| B1 | 0 |
| B2 | 0 |
| B3 | 48 |

What follows are proteins tested against AxCT mask27 EGFR EH104 L041 version 1.

| Protein | Percent cleavage [%] |
| --- | --- |
| B1 | 0 |
| B2 | 0 |
| B3 | 0 |

The proteins below were run against AxCT mask27 EpCAM H90.2 NCLV.

| Protein | Percent cleavage [%] |
| --- | --- |
| B1 | 0 |
| B2 | 0 |
| B3 | 0 |

The proteins below were run against AxCT mask27 EpCAM H90.2 L076 version 1.

| Protein | Percent cleavage [%] |
| --- | --- |
| B1 | 0 |
| B2 | 0 |
| B3 | 0 |

Each protein was assayed against AxCT mask27 EpCAM H90.2 L060 version 1.

| Protein | Percent cleavage [%] |
| --- | --- |
| B1 | 0 |
| B2 | 9 |
| B3 | 16 |

These proteins were tested against AxCT mask27 EGFR EH104 L062 version 1.

| Protein | Percent cleavage [%] |
| --- | --- |
| B1 | 0 |
| B2 | 25 |
| B3 | 51 |

Each protein was assayed against AxCT mask27 EGFR EH104 L057 version 1.

| Protein | Percent cleavage [%] |
| --- | --- |
| B1 | 7 |
| B2 | 0 |
| B3 | 18 |

These proteins were tested against AxCT mask27 EpCAM H90.2 L040 version 1.

| Protein | Percent cleavage [%] |
| --- | --- |
| B1 | 0 |
| B2 | 0 |
| B3 | 0 |
